# Measured values published in patent US20260242735A1 (UNIVERSIT T BASEL, published 2026).
# B1: Refmab #2 (antibody, V domains shown)
# VH: QVQLVQSGAEVKKPGSSVKVSCKASGGTFSDYAISWVRQAPGQGLEWMGRIIPILGVADYAQKFQGRVTITADKSTRTAYMELSSLRSEDTAVYYCARNWADAFDIWGQGTMVTVSS
# VL: DIQLTQSPSSLSASVGDRVTITCRASQGISSVLAWYQQKPGKAPKLLIYDASSLESGVPSRFSGSGSGTDFTLTISSLQPEDFATYYCQQFDSSITFGQGTKLEIK
# notes: The alanine scan used IgG or Fab
# B2: Refmab #3 (antibody, V domains shown)
# VH: QVQLVQSGAEVKKPGSSVKVSCKASGYTFTDYNMHWVRQAPGQGLEWIGYIYPYNGGTGYNQKFKSKATITADESTNTAYMELSSLRSEDTAVYYCARGRPAMDYWGQGTLVTVSS
# VL: DIQMTQSPSSLSASVGDRVTITCRASESVDNYGISFMNWFQQKPGKAPKLLIYAASNQGSGVPSRFSGSGSGTDFTLTISSLQPDDFATYYCQQSKEVPWTFGQGTKVEIK
# notes: as for B1
# How the values were obtained:
# Assay in all cases: flow cytometry, alanine scan
# [1] = biological target: human CD33 Q364A (human, UniProt P20138 18-363)
# Protocol: (§1) An alanine scan on human CD33 was performed to the determine the residues on CD33 that are involved in binding to the antibodies investigated. […] Briefly, a mutation library of CD33 was created by high-throughput, site-directed mutagenesis. Each residue was individually mutated to alanine, with alanine codons mutated to serine. The mutant library was arrayed in 384-well microplates and transiently transfected into HEK293-T. Following transfection, cells were incubated with the indicated antibodies (IgG or Fab) at concentrations pre-determined using an independent immunofluorescence titration curve on wild type CD33. […] Binding of each antibody to each mutant clone was determined in duplicates. For each point, background fluorescence was subtracted from the raw data, which were then normalized to antibody reactivity with wild type CD33.
# (§2) Critical residues for antibody binding (outlined in dark grey) were residues whose mutations led to a binding of the test Abs of less than 20%. Additional secondary residues (outlined in light grey) were identified that led to a binding of the test Abs of between 20 and 40% as compared to the wild type CD33.
# [2] = biological target: human CD33 N349A (human, UniProt P20138 18-364)
# Protocol: as §1, §2
# [3] = biological target: human CD33 P330A (human, UniProt P20138 18-364)
# Protocol: as §1, §2
# [4] = biological target: human CD33 T331A (human, UniProt P20138 18-364)
# Protocol: as §1, §2
# [5] = biological target: human CD33 E360A (human, UniProt P20138 18-364)
# Protocol: as §1, §2
# [6] = biological target: human CD33 S326A (human, UniProt P20138 18-364)
# Protocol: as §1, §2
# [7] = biological target: human CD33 E321A (human, UniProt P20138 18-364)
# Protocol: as §1, §2
# [8] = biological target: human CD33 L338A (human, UniProt P20138 18-364)
# Protocol: as §1, §2
# [9] = biological target: human CD33 C325A (human, UniProt P20138 18-364)
# Protocol: as §1, §2
# [10] = biological target: human CD33 S355A (human, UniProt P20138 18-364)
# Protocol: as §1, §2
# [11] = biological target: human CD33 M348A (human, UniProt P20138 18-364)
# Protocol: as §1, §2
# [12] = biological target: human CD33 S342A (human, UniProt P20138 18-364)
# Protocol: as §1, §2
# [13] = biological target: human CD33 S323A (human, UniProt P20138 18-364)
# Protocol: as §1, §2
# [14] = biological target: human CD33 H339A (human, UniProt P20138 18-364)
# Protocol: as §1, §2
# [15] = biological target: human CD33 D335A (human, UniProt P20138 18-364)
# Protocol: as §1, §2
# [16] = biological target: human CD33 V361A (human, UniProt P20138 18-364)
# Protocol: as §1, §2
# [17] = biological target: human CD33 S324A (human, UniProt P20138 18-364)
# Protocol: as §1, §2
# [18] = biological target: human CD33 T320A (human, UniProt P20138 18-364)
# Protocol: as §1, §2
# [19] = biological target: human CD33 G318A (human, UniProt P20138 18-364)
# Protocol: as §1, §2
# [20] = biological target: human CD33 Y358A (human, UniProt P20138 18-364)
# Protocol: as §1, §2
# [21] = biological target: human CD33 E337A (human, UniProt P20138 18-364)
# Protocol: as §1, §2
# [22] = biological target: human CD33 E336A (human, UniProt P20138 18-364)
# Protocol: as §1, §2
# [23] = biological target: human CD33 H346A (human, UniProt P20138 18-364)
# Protocol: as §1, §2
# [24] = biological target: human CD33 R362A (human, UniProt P20138 18-364)
# Protocol: as §1, §2
# [25] = biological target: human CD33 T354A (human, UniProt P20138 18-364)
# Protocol: as §1, §2
# [26] = biological target: human CD33 G347A (human, UniProt P20138 18-364)
# Protocol: as §1, §2
# [27] = biological target: human CD33 T363A (human, UniProt P20138 18-364)
# Protocol: as §1, §2
# [28] = biological target: human CD33 P319A (human, UniProt P20138 18-364)
# Protocol: as §1, §2
# [29] = biological target: human CD33 G327A (human, UniProt P20138 18-364)
# Protocol: as §1, §2
# [30] = biological target: human CD33 P350A (human, UniProt P20138 18-364)
# Protocol: as §1, §2
# [31] = biological target: human CD33 E357A (human, UniProt P20138 18-364)
# Protocol: as §1, §2
# [32] = biological target: human CD33 K352A (human, UniProt P20138 18-364)
# Protocol: as §1, §2
# [33] = biological target: human CD33 S351A (human, UniProt P20138 18-364)
# Protocol: as §1, §2
# [34] = biological target: human CD33 L343A (human, UniProt P20138 18-364)
# Protocol: as §1, §2
# [35] = biological target: human CD33 F345A (human, UniProt P20138 18-364)
# Protocol: as §1, §2
# [36] = biological target: human CD33 A341S (human, UniProt P20138 18-364)
# Protocol: as §1, §2
# [37] = biological target: human CD33 Y340A (human, UniProt P20138 18-364)
# Protocol: as §1, §2
# [38] = biological target: human CD33 T356A (human, UniProt P20138 18-364)
# Protocol: as §1, §2
# [39] = biological target: human CD33 V332A (human, UniProt P20138 18-364)
# Protocol: as §1, §2
# [40] = biological target: human CD33 S359A (human, UniProt P20138 18-364)
# Protocol: as §1, §2
# [41] = biological target: human CD33 M334A (human, UniProt P20138 18-364)
# Protocol: as §1, §2
# [42] = biological target: human CD33 E333A (human, UniProt P20138 18-364)
# Protocol: as §1, §2
# [43] = biological target: human CD33 A328S (human, UniProt P20138 18-364)
# Protocol: as §1, §2
# [44] = biological target: human CD33 A329S (human, UniProt P20138 18-364)
# Protocol: as §1, §2
# [45] = biological target: human CD33 N344A (human, UniProt P20138 18-364)
# Protocol: as §1, §2
# [46] = biological target: human CD33 D353A (human, UniProt P20138 18-364)
# Protocol: as §1, §2
# [47] = biological target: human CD33 T322A (human, UniProt P20138 18-364)
# Protocol: as §1, §2
# Sequence of human CD33 N344A (P20138 18-364 N344A limits assumed): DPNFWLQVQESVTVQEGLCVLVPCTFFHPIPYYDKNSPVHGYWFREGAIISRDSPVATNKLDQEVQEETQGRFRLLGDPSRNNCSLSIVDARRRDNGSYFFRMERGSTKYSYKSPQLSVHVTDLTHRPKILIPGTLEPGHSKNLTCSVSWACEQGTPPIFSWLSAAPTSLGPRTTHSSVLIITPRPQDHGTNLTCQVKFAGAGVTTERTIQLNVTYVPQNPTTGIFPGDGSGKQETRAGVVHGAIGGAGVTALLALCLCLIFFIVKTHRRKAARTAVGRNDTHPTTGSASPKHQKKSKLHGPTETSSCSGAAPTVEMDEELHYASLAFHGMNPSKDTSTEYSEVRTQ
# Sequence of human CD33 V361A (P20138 18-364 V361A limits assumed): as the sequence (P20138 18-364 N344A limits assumed) above, with A327N, V344A counted along it
# Sequence of human CD33 P319A (P20138 18-364 P319A limits assumed): as the sequence (P20138 18-364 N344A limits assumed) above, with P302A, A327N counted along it
# Sequence of human CD33 G327A (P20138 18-364 G327A limits assumed): as the sequence (P20138 18-364 N344A limits assumed) above, with G310A, A327N counted along it
# Sequence of human CD33 T354A (P20138 18-364 T354A limits assumed): as the sequence (P20138 18-364 N344A limits assumed) above, with A327N, T337A counted along it
# Sequence of human CD33 T363A (P20138 18-364 T363A limits assumed): as the sequence (P20138 18-364 N344A limits assumed) above, with A327N, T346A counted along it
# Sequence of human CD33 E333A (P20138 18-364 E333A limits assumed): as the sequence (P20138 18-364 N344A limits assumed) above, with E316A, A327N counted along it
# Sequence of human CD33 E336A (P20138 18-364 E336A limits assumed): as the sequence (P20138 18-364 N344A limits assumed) above, with E319A, A327N counted along it
# Sequence of human CD33 A329S (P20138 18-364 A329S limits assumed): as the sequence (P20138 18-364 N344A limits assumed) above, with A312S, A327N counted along it
# Sequence of human CD33 S359A (P20138 18-364 S359A limits assumed): as the sequence (P20138 18-364 N344A limits assumed) above, with A327N, S342A counted along it
# Sequence of human CD33 P350A (P20138 18-364 P350A limits assumed): as the sequence (P20138 18-364 N344A limits assumed) above, with A327N, P333A counted along it
# Sequence of human CD33 A341S (P20138 18-364 A341S limits assumed): as the sequence (P20138 18-364 N344A limits assumed) above, with A324S, A327N counted along it
# Sequence of human CD33 E337A (P20138 18-364 E337A limits assumed): as the sequence (P20138 18-364 N344A limits assumed) above, with E320A, A327N counted along it
# Sequence of human CD33 T331A (P20138 18-364 T331A limits assumed): as the sequence (P20138 18-364 N344A limits assumed) above, with T314A, A327N counted along it
binder,measurement,setting,value
B1,Mean % WT Binding,[1],109 % of WT
same,Mean % WT Binding,[2],110 % of WT
same,Mean % WT Binding,[3],119 % of WT
same,Mean % WT Binding,[4],91.3 % of WT
same,Mean % WT Binding,[5],101 % of WT
same,Mean % WT Binding,[6],109 % of WT
same,Mean % WT Binding,[7],117 % of WT
same,Mean % WT Binding,[8],107 % of WT
same,Mean % WT Binding,[9],109 % of WT
same,Mean % WT Binding,[10],105 % of WT
same,Mean % WT Binding,[11],115 % of WT
same,Mean % WT Binding,[12],117 % of WT
same,Mean % WT Binding,[13],119 % of WT
same,Mean % WT Binding,[14],99.5 % of WT
same,Mean % WT Binding,[15],117 % of WT
same,Mean % WT Binding,[16],99.4 % of WT
same,Mean % WT Binding,[17],106 % of WT
same,Mean % WT Binding,[18],112 % of WT
same,Mean % WT Binding,[19],106 % of WT
same,Mean % WT Binding,[20],110 % of WT
same,Mean % WT Binding,[21],116 % of WT
same,Mean % WT Binding,[22],117 % of WT
same,Mean % WT Binding,[23],118 % of WT
same,Mean % WT Binding,[24],119 % of WT
same,Mean % WT Binding,[25],111 % of WT
same,Mean % WT Binding,[26],85.9 % of WT
same,Mean % WT Binding,[27],108 % of WT
same,Mean % WT Binding,[28],100 % of WT
same,Mean % WT Binding,[29],122 % of WT
same,Mean % WT Binding,[30],117 % of WT
same,Mean % WT Binding,[31],104 % of WT
same,Mean % WT Binding,[32],113 % of WT
same,Mean % WT Binding,[33],109 % of WT
same,Mean % WT Binding,[34],111 % of WT
same,Mean % WT Binding,[35],102 % of WT
same,Mean % WT Binding,[36],116 % of WT
same,Mean % WT Binding,[37],106 % of WT
same,Mean % WT Binding,[38],111 % of WT
same,Mean % WT Binding,[39],91.6 % of WT
same,Mean % WT Binding,[40],102 % of WT
same,Mean % WT Binding,[41],106 % of WT
same,Mean % WT Binding,[42],108 % of WT
same,Mean % WT Binding,[43],102 % of WT
same,Mean % WT Binding,[44],116 % of WT
same,Mean % WT Binding,[45],88.1 % of WT
same,Mean % WT Binding,[46],94.4 % of WT
same,Mean % WT Binding,[47],111 % of WT
B2,Mean % WT Binding,[1],97.8 % of WT
same,Mean % WT Binding,[2],121 % of WT
same,Mean % WT Binding,[3],146 % of WT
same,Mean % WT Binding,[4],147 % of WT
same,Mean % WT Binding,[5],123 % of WT
same,Mean % WT Binding,[6],129 % of WT
same,Mean % WT Binding,[7],88.4 % of WT
same,Mean % WT Binding,[8],89.3 % of WT
same,Mean % WT Binding,[9],91.2 % of WT
same,Mean % WT Binding,[10],85.6 % of WT
same,Mean % WT Binding,[11],133 % of WT
same,Mean % WT Binding,[12],121 % of WT
same,Mean % WT Binding,[13],115 % of WT
same,Mean % WT Binding,[14],83.5 % of WT
same,Mean % WT Binding,[15],87.4 % of WT
same,Mean % WT Binding,[16],97.6 % of WT
same,Mean % WT Binding,[17],109 % of WT
same,Mean % WT Binding,[18],82.4 % of WT
same,Mean % WT Binding,[19],117 % of WT
same,Mean % WT Binding,[20],140 % of WT
same,Mean % WT Binding,[21],114 % of WT
same,Mean % WT Binding,[22],103 % of WT
same,Mean % WT Binding,[23],133 % of WT
same,Mean % WT Binding,[24],114 % of WT
same,Mean % WT Binding,[25],89.1 % of WT
same,Mean % WT Binding,[26],118 % of WT
same,Mean % WT Binding,[27],91.5 % of WT
same,Mean % WT Binding,[28],76.4 % of WT
same,Mean % WT Binding,[29],132 % of WT
same,Mean % WT Binding,[30],90.7 % of WT
same,Mean % WT Binding,[31],120 % of WT
same,Mean % WT Binding,[32],96.3 % of WT
same,Mean % WT Binding,[33],91.8 % of WT
same,Mean % WT Binding,[34],77.4 % of WT
same,Mean % WT Binding,[35],84 % of WT
same,Mean % WT Binding,[36],138 % of WT
same,Mean % WT Binding,[37],88 % of WT
same,Mean % WT Binding,[38],108 % of WT
same,Mean % WT Binding,[39],89.8 % of WT
same,Mean % WT Binding,[40],135 % of WT
same,Mean % WT Binding,[41],81.2 % of WT
same,Mean % WT Binding,[42],104 % of WT
same,Mean % WT Binding,[43],127 % of WT
same,Mean % WT Binding,[44],133 % of WT
same,Mean % WT Binding,[45],118 % of WT
same,Mean % WT Binding,[46],98.3 % of WT
same,Mean % WT Binding,[47],83.5 % of WT
